One block for each molecule: values may come before it.
Assays:
[1] = target: L,L-diaminopimelate aminotransferase from Chlamydomonas reinhardtii (Chlamydomonas reinhardtii); experiment: AUC; sedimentation velocity, 9.2 µM (0.45 mg/mL) Cr-DapL, 20 °C, 50 mM HEPES, 0.5 mM DTT, 1 mM EDTA, 50 mM NaCl pH 8.0, 45,000 rpm; c(s) and c(M) distributions in SEDFIT
[2] = substrate: O=C(O)C1=N[C@H](C(=O)O)CCC1; experiment: purified protein; format: biochemical, Chlamydomonas reinhardtii; settings: forward direction, co-substrate glutamate 5.0 mM, THDPA generated in situ from meso-DAP by C. glutamicum Ddh with NADP, 100 mM HEPES-KOH pH 7.6
[3] = substrate: O=C(O)CCC(=O)C(=O)O; experiment: purified protein; format: biochemical, Chlamydomonas reinhardtii; settings: reverse direction, amino acceptor, saturating L,L-DAP, 0.3 mM NADPH, 50 mM NH4Cl, 100 mM HEPES-KOH pH 7.6, 30 °C
[4] = substrate: N[C@@H](CCC(=O)O)C(=O)O; experiment: purified protein; format: biochemical, Chlamydomonas reinhardtii; settings: forward direction, amino donor, saturating THDPA generated in situ from meso-DAP by C. glutamicum Ddh, 100 mM HEPES-KOH pH 7.6
[5] = substrate: N[C@@H](CCC[C@H](N)C(=O)O)C(=O)O; experiment: purified protein; format: biochemical, Chlamydomonas reinhardtii; settings: reverse direction, amino donor, saturating 2-oxoglutarate, 0.3 mM NADPH, 50 mM NH4Cl, 100 mM HEPES-KOH pH 7.6, 30 °C

stoichiometry N [1]: 2
Molecule: L,L-diaminopimelate aminotransferase from Chlamydomonas reinhardtii (enzyme)

B1: Cr-DapL (Chlamydomonas reinhardtii) (protein)
chain: MQLNVRSTASGARSSTRSRRMTAVVQAVAQRAGTIDVQRNENFGKLRAGYLFPEIARRRKAHQEKNPDAKIISLGIGDTTEPLPKYIADAMAKAAAGLATREGYSGYGAEQGQGALREAVASTFYGHAGRAADEIFISDGSKCDIARIQMMFGSKPTVAVQDPSYPVYVDTSVMMGMTGDHNGTGFDGIEYMVCNPDNHFFPDLSKAKRTDIIFFCSPNNPTGAAATRAQLTELVNFARKNGSILVYDAAYALYISNPDCPKTIYEIPGADEVAIETCSFSKYAGFTGVRLGWTVVPKALKYANGEPVHADWNRVMTTCFNGASNIVQAGGLACLQPEGLKEMNAMIKFYKENAQILKTTFTEMGFSVYGGDDAPYIWVGFPGKPSWDVFAEILERCNIVTTPGSGFGPAGEGFVRASAFGSRENILEAVRRFKEAYGKRN
notes: monomeric mass 48,830 Da; dimer; EC 2.6.1.83
Km [2]: 100 ± 10 µM
Vmax [2]: 0.68 µmol/min/mg
kcat [2]: 1.1 s⁻¹
Km [3]: 2200 ± 700 µM
kcat [3]: 19.0 s⁻¹
Km [4]: 900 ± 400 µM
kcat [4]: 1.1 s⁻¹
Km [5]: 300 ± 20 µM
Vmax [5]: 11.6 µmol/min/mg
kcat [5]: 19 s⁻¹

Reference: publication PMC3102117, “L,L-Diaminopimelate Aminotransferase from Chlamydomonas reinhardtii: A Target for Algaecide Development” (PLoS ONE, 2011)
